Measurements as given in publication PMC12120873, “Evening complex component ELF3 interacts with LUX proteins to repress soybean root nodulation”.

Legend:
LUX1-MBP = target: T1, LUX1-MBP (Glycine max, UniProt K7LTA3 1-306); assay: EMSA; LightShift Chemiluminescent EMSA Kit (Pierce) binding buffer, composition, salt and pH not stated; room temperature 20 min; 6% native PAGE; conditions: protein: recombinant; tags: MBP; label: biotin; blunt
T1 sequence: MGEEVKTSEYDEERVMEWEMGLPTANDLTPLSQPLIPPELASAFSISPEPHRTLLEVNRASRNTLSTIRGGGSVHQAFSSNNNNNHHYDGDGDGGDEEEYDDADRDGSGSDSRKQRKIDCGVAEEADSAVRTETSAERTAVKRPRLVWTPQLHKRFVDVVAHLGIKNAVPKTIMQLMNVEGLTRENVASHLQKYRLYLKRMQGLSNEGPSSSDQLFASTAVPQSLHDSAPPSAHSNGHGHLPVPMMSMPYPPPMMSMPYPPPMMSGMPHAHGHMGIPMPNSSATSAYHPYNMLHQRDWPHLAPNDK

INN1-MBP (ELF3a) = target: T2, INN1-MBP (ELF3a) (Glycine max, UniProt K7KI62 1-714); assay: EMSA; INN1 alone; probe taken to be the ENOD40 probe of Table S1; LightShift Chemiluminescent EMSA Kit (Pierce) binding buffer, composition, salt and pH not stated; room temperature 20 min; 6% native PAGE; conditions: protein: recombinant; tags: MBP; label: biotin; blunt
T2 sequence: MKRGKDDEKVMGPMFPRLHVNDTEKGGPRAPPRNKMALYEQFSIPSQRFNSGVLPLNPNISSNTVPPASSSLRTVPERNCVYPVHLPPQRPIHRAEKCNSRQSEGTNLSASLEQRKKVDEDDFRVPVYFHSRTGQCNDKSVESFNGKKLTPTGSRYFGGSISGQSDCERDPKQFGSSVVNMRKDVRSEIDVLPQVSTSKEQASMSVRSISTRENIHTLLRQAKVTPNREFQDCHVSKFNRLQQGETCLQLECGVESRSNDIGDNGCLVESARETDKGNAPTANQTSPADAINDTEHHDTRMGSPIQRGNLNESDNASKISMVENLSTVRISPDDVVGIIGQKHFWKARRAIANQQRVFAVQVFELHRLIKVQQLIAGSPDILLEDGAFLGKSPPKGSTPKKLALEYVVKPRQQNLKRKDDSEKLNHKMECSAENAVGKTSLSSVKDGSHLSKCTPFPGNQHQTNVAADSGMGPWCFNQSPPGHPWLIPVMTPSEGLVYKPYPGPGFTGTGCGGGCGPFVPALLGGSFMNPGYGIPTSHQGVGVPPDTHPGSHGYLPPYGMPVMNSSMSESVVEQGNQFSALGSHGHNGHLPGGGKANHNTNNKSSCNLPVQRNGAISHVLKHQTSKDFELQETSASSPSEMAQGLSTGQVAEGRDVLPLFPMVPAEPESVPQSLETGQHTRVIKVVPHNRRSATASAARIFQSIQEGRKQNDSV

B1: probe-ENOD40 (P1 region) (dsDNA)
DNA 1: TTGACATTCATATCCTTTGTATTTCAATTAGATTAGATATGTTCTACGGA
DNA 2: TCCGTAGAACATATCTAATCTAATTGAAATACAAAGGATATGAATGTCAA
- binding result (LUX1-MBP): binds
- binding result (INN1-MBP (ELF3a)): no binding
